Results: publication PMC3045311

What was measured:
[1] = target: Aspergillus niger xylanases
[2] = target: Acrophialophora nainiana xylanases
[3] = target: Acrophialophora nainiana xylanases; remark: listed apart in the source

Inhibition (%) of xylanase activity (oat spelt xylan, DNS reagent, Abs 540 nm; 60 μg xylanases, 5 μg CaclXIP, 12:1 w/w, 50°C, 30 min) [1]: 19.5%
Inhibition (%) of xylanase activity (oat spelt xylan, DNS reagent, Abs 540 nm; 60 μg xylanases, 5 μg CaclXIP, 12:1 w/w, 50°C, 30 min) [2]: 57%
Inhibition (%) of xylanase activity (oat spelt xylan, DNS reagent, Abs 540 nm; enzymes:inhibitor ratio 12:1 w/w) [3]: 56%
Substance: Coffea arabica Chitinase-like Xylanase Inhibitor Protein (natural protein)
